Laboratory results: US20210032360A1 (BERLIN CHEMIE, published 2021)
Values belong to the binder of their own block, whether it stands above or below them.

Molecular target: T1, Bone marrow stromal antigen 1 (BST1), human, on the cell surface (human, UniProt Q10588 33-293)
T1 construct: This is endogenous BST1 on A549, H226 and U937 cells and on primary MDS bone marrow cells; also called ADP-ribosyl cyclase 2; CD157
T1 sequence: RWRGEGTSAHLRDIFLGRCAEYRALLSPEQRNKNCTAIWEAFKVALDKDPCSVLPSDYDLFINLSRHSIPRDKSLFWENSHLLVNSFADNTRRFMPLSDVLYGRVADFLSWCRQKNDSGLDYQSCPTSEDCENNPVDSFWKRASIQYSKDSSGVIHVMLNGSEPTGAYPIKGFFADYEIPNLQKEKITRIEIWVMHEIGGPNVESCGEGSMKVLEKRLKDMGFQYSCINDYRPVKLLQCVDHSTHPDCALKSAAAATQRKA
Assay: flow cytometry on BST1-expressing H226 and A549 cells, PE-labelled secondary antibody, geometric mean fluorescence (PE GMFI); antibody concentration not given
Description: The specificity of antibodies against the BST1 selected in Example 2 was tested by flow cytometry. To test the ability of the antibodies to bind to the cell surface BST1 protein, the antibodies were incubated with the BST1-expressing cells, A549 and H226, from human lung adenocarcinoma and human lung squamous carcinoma, respectively. Cells were washed in FACS buffer (DPBS, 2% FBS), centrifuged and resuspended in 100 μl of the diluted primary BST1 antibody (also diluted in FACS buffer). The antibody-A549 complex was incubated on ice for 60 min and then washed twice with FACS buffer as described above. The cell-antibody pellet was resuspended in 100 μl of the diluted secondary antibody (also diluted in FACS buffer) and incubated on ice for 60 min on ice. The pellet was washed as before and resuspended in 200 μl FACS buffer. The samples were loaded onto the BD FACScanto II flow sytometer and the data analyzed using the BD FACSdiva software.

- binding result: binds
B1: BST1_A3 (Fab, V domains shown)
VH: QVQLQQSRAELVMPGASVKMSCKTSGYTFSDYWVHWVRQRPGQGLEWIGAIDGSDTFNDYSQKFKGRATLTVDESSSTVYMQLSSLTSEDSAVYYCARGGLLQYWGQGTTLTVSS
VL: DIQLTQSPASLSASVGETVTITCRASENIYSYLAWYQQKQGKSPQLLVYNTKTLGEGVPSRFSGSGSGTQFSLKINSLQPEDFGSYYCQHHYGTPFTFGSGTKLEIKR
notes: they are whole murine Fab chains: bacterial leader, variable domain and constant domain, with a His tag on the heavy chain

- binding result: binds
B2: BST1_A1 (Fab, V domains shown)
VH: QVKLQQSGAELVRPGSSVKISCKASGYAFSNSWINWVKQRPGQGLEWIGQIYPGDYDTNYNGKFKGKATLTADYSSSTAYMQLNSLTSEDSAVYFCARGGSIYYGNLGFFDVWGAGTTVTVSS
VL: EMVLTQSPAIMSTSLGERVTMTCTASSRVSSSYLHWYQQKPGSSPKLWIYSTSNLASGVPARFSGSGSGTSYSLTISSMEAEDAATYYCHQYHRSPYTFGGGTKLEIKR
notes: also called anti-BST1 monoclonal antibody BST1_A1

- binding result: binds
B3: BST1_A2 (Fab, V domains shown)
VH: QAYLQQSGPELVKAGASVKMSCKASGYSFIEYTINWVKQSHGKSLEWIGNIDPYYGTTYYNQMFTGKATLTVDQSSNTAYMQLKSLTSEDSAVYFCARGSAWFPYWGQGTLVTVSA
VL: DIVMSQSPAIMSASPGEKVTMTCSASSSVTYMYWYQQKPGSSPRLLIYDTSNLASGVPVRFSGSGSGTSYSLTISRMEAEDTATYYCQQWSNYPLTFGAGTKLELKR
notes: they are whole murine Fab chains: bacterial leader, variable domain and constant domain, with a His tag on the heavy chain; also called anti-BST1 monoclonal antibody BST1_A2
